Publication PMC2757159

Legend:
[1] = biological target: human copper chaperone for SOD1 (human); experiment: SEC
[2] = biological target: human copper chaperone for SOD1 (human); experiment: SEC; remark: listed apart in the source
[3] = biological target: yeast copper chaperone for SOD1 (yeast); experiment: native gel or EMSA
[4] = biological target: human copper chaperone for SOD1 (human); experiment: native gel or EMSA

stoichiometry N [1]	stoichiometry N [2]	stoichiometry N [3]	stoichiometry N [4]	Substance
4	4			human copper chaperone for SOD1 (natural protein)
		1 SOD1:CCS	1 SOD1:CCS	human H46R/H48Q copper-zinc superoxide dismutase (SOD1) double mutant (from UniProt P00441 1-154) (enzyme)
